The text below walks through data of a protein production outcome set (Wang et al. 2014).

The nature of this data set: label from the status in PepcDB records.

Consider “MSLKVHHIGYAVKNIDSALKKFKRLGYVEESEVVRDEVRKVYIQFVINGGYRVELVAPDGEDSPINKTIKKGSTPYHICYEVEDIQKSIEEMSQIGYTLFKKAEIAPAIDNRKVAFLFSTDIGLIELLEKEGHHHHHH”, for which the protein production entry was “not failed”. Regarding “MSLKYGHVAWIQQILDGSYADAMNTLKNITVDDSKKGESLSECELHLNVAKLSSLLVEKDNLDINTLRKIQYNLDTIDAEKNISNKLKKGEVQICKRFKNGSIREVFNILVEELKSTTVVNLSDLVELYSMLDDEESLFIPLRLLSVDGNLLNFEVKKFLNALVWRRIVLLNASNEGDKLLQHIVKRVFDEELPKNNDFPLPSVDLLCDKSLLTPEYISETYGRFPIDQNAIREEIYEEISQVETLNSDNSLEIKLHSTIGSVAKEKNYTINYETNTVEYEGHHHHHH”, the protein production result is on record as “not failed”. The result for “MSLLDAHIPQLIASHTAFAAKAGLMRHTIGQAEQQAMSAQAFHQGESAAAFQGAHARFVAAAAKVNTLLDIAQANLGEAAGTYVAADAAAASSYTGF” reads “failed”; that for “MSLLDFYIIWRGDMLFATVVPIAYFLLYLKNKQVTFVFLKFVMAFVICLYWATYACTFFYSYYDVIGWFKILIIPVFSIYSGFVLHLLKSKKKKVFFLISIVYIIFWCILIFWHCMSSM”, “failed”; that for “MSLLLCDIGNSNANFLDDNKYFTLNIDQFLEFKNEQKIFYINVNEHLKEHLKNQKNFINLEPYFLFDTIYQGLGIDRIAACYTIEDGVVVDAGSAITIDIISNSIHLGGFILPGIANYKKIYSHISPRLKSEFNTQVSLDAFPQKTMDALSYGVFKGIYLLIKDAAQNKKLYFTGGDGQFLANYFDHAIYDKLLIFRGMKKIIKENPNLLYEGHHHHHH”, “not failed”. On to “MSLLPLPFTVHFDPTNQELLLSGKMRPESAAEITDALKLVQQSLEKYSGVVYVNVKRLTHINMTAFAALADILAASSRIRPERKIVIITSSVVAWSTSLFQTLAASQPSLSVEVYDSAFYPGQSFVEDETFIPILRTQTKMTWRHERELLPRHGLRSGLVIADICCGIGDFAALVQREFKPARLVALDHSVRSLEYARRVAADFDLQGIEYTYGDASQMLLRDNQFDFVTCRHSLQIFNRPEMLLRELYRICKPGGRVYITNEKNSHCLGEPHAESIKWTYEEVAKLFKHFDMDVEMGPKSRHLLADAGFDNIKVDSFMVTNLDGDPQDFADIIEAWENVYAGEMAVRRGDSSDFIRRFRQGFKDHVFAALHPKGYAGWPIWAASGRKPL”, for which the protein production entry is on record as “failed”. The result for “MSLMQLQLTQEWDKTFPLSAKVEHRKVTFANRYGITLAADLYLPKNRGGDRLPAIVIGGPFGAVKEQSSGLYAQTMAERGFVTLAFDPSYTGESGGQPRNVASPDINTEDFSAAVDFISLLPEVNRERIGVIGICGWGGMALNAVAVDKRIKAVVTSTMYDMTRVMSKGYNDSVTLEQRTRTLEQLGQQRWKDAESGTPAYQPPYNELKGGEAQFLVDYHDYYMTPRGYHPRAVNSGNAWTMTTPLSFMNMPILTYIKEISPRPILLIHGERAHSRYFSEIAYAAAAEPKELLIVPGASHVDLYDRLDRIPFDRIAGFFDEHLEGHHHHHH” reads “not failed”. The result for “MSLNIKEASEKSGVSADTIRYYERIGLIPPIHRNESGVRKFGAEDLRWILFTRQMRRAGLSIEALIDYLALFREGEHTLEARAELLKKQRIELKNRIDVMQEALDRLDFKIDNYDTHLIPAQEELKDFNVERSNEGHHHHHH” reads “not failed”; that for “MSLNKKVFIIDKQTVYQEIDNFSASDAWRCAFIGKNWPQEKKEKIADLLFKREFDEKGNPIGMALTNWRVNIGAGSYENREAKEVDNSWNRTECFLSPDGKYDFTKQAGQQWFMKAARERGMNNFLFFTNSAPYFMTRSASTVSTDQDCINLQNDKFDDFARFLVKSAQHFREQGFHVNYISPNNEPNGQWHANSFQEGSFATKADLYRMVEELDKAISEAQIDTKILIPEVGDMKYLFEIDSIAKTPDDIIHSMFYKDGQYSVLKFKNLFNCVAAHDYWSAYPATLLVDIRNRIHKELSANGHNTKFWASEYCILEKNEEITMPASPERSINLGLYVARIIHNDLTLANASAWQWWTAVSLGEDVPIQLLPLEGSNGLSLQYDGEISTTKMLWTTANYSFFVRPGMKRIAIKPTYKISDLEAATSLMISSYTDGKEVVTVAINYSKENQVISLNCDHAQKGKVYLTTIDKNLRYMGEQPLKKLQLPARSVATIVVEDNEGHHHHHH”, “not failed”. Consider “MSLNSAAQAQSSDPVVIGCPAPLTGIVAADGIEFQRGIQMAADEINAVGGILGRPIELVFADTQSKGVDVVIQSAQRLIDRDNASALIAGYNLENGTALHDVAADAGVIAMHANTVAVHDEMVKSDPDRYWGTFQYDPPETLYGGGFLKFLKDIEDNGEFSRPNNKIAIITGPGIYSVNIANAIRDGAGEYGYDVSLFETVAIPVSDWGPTLAKLRADPPAVIVVTHFYPQDQALFMNQFMTDPTNSLVYLQYGASLAAFRDIAGDNSVGVTYATVLGTLQDEMGDAFAKAYKERYGDLSSTASGCQTYSALYAYSIAAALAGGPGAPYDDVQNKAVADRLRSLIFRGPVGTMRFHADTQSAWSYPTETNDPSLGMPHIFSQIFDKAEDGVLIAPAPYKKAGFKMPPWMKGEGHHHHHH”, for which the protein production result is given as “not failed”. To “MSLNVKNDFSILIIEDDKEFADMLTQFLENLFPYAKIKIAYNPFDAGDLLHTVKPDVVMLDLMMVGMDGFSICHRIKSTPATANIIVIAMTGALTDDNVSRIVALGAETCFGKPLNFTLLEKTIKQLVEQKKATSEGHHHHHH” belongs “not failed”.

Consider “MSLNYIEDIKNYIPFNEQEERDKELFLRCLNDFHDILTRDNTIAHLTSSAFAVNKERNKFLMIHHNIYNSWAWTGGHSDNEKDQLKVAIKELKEETGVKNPTPLLDKAFALDVLTVNGHIKRGKYVSSHLHLNLTYLIECSEDETLMLKEDENSGVMWIPFNEISKYCSEPHMIPIYEKLINKLKTQSKEGHHHHHH”, for which the protein production entry is recorded as “not failed”.

For “MSLPANKLVFVGGMGAGKTTAVRSISDVEPVSTEMPLSQDAYGDKTYTTVALDYSSIELEDGELLHVYGVPGQKYLDFMWPLVCDGALGVIVLTNARDPQMLTATLELLREFSQIAPEASLAVGITMTDEVEDFLVPPFREALVAEGFRVPVMRVDARSATQITFLVKSLLSYRYTSATSLEHHHHHH”, the protein production result is recorded as “not failed”.

In the case of “MSLPTFRIIGFIIGIFLITLAVAMIVPMATLVIYDRFEDLRSFLWASAITFIAGLALVVPGRPDNVQLRPRDMYMLTVSSWIVVCIFAALPFLLTQHISYTDSFFESMSGITATGSTVLSHLDSMSPGILIWRSMLHWLGGIGFIGMAVAILPLLRIGGMRLFQTESSDRSEKVMPRSHMVAKFIVLAYVGFTALGSLAFWAAGMSLFDAINHAMSAISTGGFSTSDLSLARWPQPAVHWVAIVVMILGSLPFTLYVATLRGNRKALIKDEQVQGLIGLLLITWLVMTVWYANTTDLPWTEALRHVALNVTSVVTTTGFALGDYSLWGNFSLMLFFYLGFIGGCSGSTAGGVKIFRFQVAYILLKTNLNQLIHPRAVMKQKYNGHRLDDEIVRSILTFSFFFTITICLIALMLSLLGLDWMTALTGAASTVSGVGPGLGEVIGPAGNFSTLPDAAKWILSGGMLLGRLEIITVLVLCVPAFWRH”, the protein production entry is listed as “failed”.

“MSLQPKLLLVLKGDSNAYWRQVYLGAQKAADEAGVTLLHRSTKDDGDIAGQIQILSYHLSQAPPDALILAPNSAEDLTPSVAQYRARNIPVLVVDSDLAGDAHQGLVATDNYAAGQLAARALLATLDLSKERNIALLRLRAGNASTDQREQGFLDVLRKHDKIRIIAAPYAGDDRGAARSEMLRLLKETPTIDGLFTPNESTTIGALVAIRQSGMSKQFGFIGFDQTEELEAAMYAGEISNLVVQNPEYMGYLAVQRALDLVRGKPIPAFTDTGVRLLQEGHHHHHH”: the protein production result was “not failed”. The result for “MSLRDYTRKRRFDQTPEPAEDAAATAHRQPIFVVQLHHASSRHYDFRLEADGVLKSWAVPKGPSLRAGEKRLAVQVEDHPLAYAGFEGDIPQGQYGAGHVQVFDHGTWHCDGDALAALDAGKLDFDLQGDKLRGGFALVRTRLRGRQPQWLLIKRDDAHAADLDADALVADSDATAQAIETPSAAAAPARRAKASRRRRTPAEALVTEKSASASRPRASAATQAHWRTRALALPGARDAACPTGLRAQLTLLRAEAPDGAQWPHEIKWDGYRLLTDLVDGRAQLRSRNDQAWTDSFPEVATAVQALPVRDARLDGELVVLDAQGRSDFSALQRAIDGTARQPLRYLVFDLLGVAGVDLRATPLLERKQLLRALLGETPGTLAYSAHVIGRGPEVFAASADKGWEGIVSKRADAPYRGGRSADWVKTKHEDSDEFVVVGYTDPKGARSGFGALLLAQLDGTQLRYVGRVGTGFDSALLGEITAQLQALHSPQPTLELPAHIPSRPRDVHWVRPVLIAEVAFRGWAKQGLLRQAAFKRLREDKPMSDLGGDRATPGKSRGARTRTAAAAAGKASRAAATRTAAVSAGGSAAKPGKAGKSSTAADVSTPSRVAKQRVTPAASSAAKPGKPGKSSAAATGTASPRAAKRGAVSTASASSTPKSGKRSVSSGSAASGKPAAPSKAASSKTARTPATSSARKTSTATAASSIRKARASASNAPDGVAITHPERVVFPAAGISKGDVAAYYRAVAPLVLPEIARRPLSLLRCPDGAAGACFFQKHEGRHLGAHIKAIPLKQKSGTEDYLYIEDVAGLLELVQMNTLELHPWGARVDDPEHPDRLVFDLDPGEGVAWTQVVAAAREIRSKLRAAGLESAVRLSGGKGLHVVVPIVPQASWDQARDFCEAFAQALATQAPERYVATMSKAKRHGVIFVDWLRNGRGNTSVCSWSLRAREHATVAVPLRWEELGKLSGPDAFPLDKAVQRAKRQRNDPWADVLALKQVLPG” reads “failed”; that for “MSLRIGVIGLGRIGTIHAENLKMIDDAILYAISDVREDRLREMKEKLGVEKAYKDPHELIEDPNVDAVLVCSSTNTHSELVIACAKAKKHVFCEKPLSLNLADVDRMIEETKKADVILFTGFNRRFDRNFKKLKEAVENGTIGKPHVLRITSRDPAPPPLDYIRVSGGIFLDMTIHDFDMARYIMGEEVEEVFADGSVLVDEEIGKAGDVDTAVVVLRFKSGALGVIDNSRRAVYGYDQRIEVFGSKGRIFADNVRETTVVLTDEQGDRGSRYLYFFLERYRDSYLEELKTFIKNVKSGEPPAVSGEDGKMALLLGYAAKKSLEEKRSVKLEEVIGEGHHHHHH”, “not failed”; that for “MSLRIRVPATTANLGPGFDSCGLALTLYLTLDIGAEADSWYIEHNIGGGIPHDETNVIIETALNLAPNLTPHHLVMTCDIPPARGLGSSSAAVVAGIELANTLAELNLSKEEKVRIAAEIEGHPDNVAPAVLGNWVVGAKLDGEDFYVRHLFPDCALIAFIPKAELLTSESRGVLPDTLPFKEAVQASSIANVMIAAILRNDMALAGEMMERDLWHEKYRSQLVPHLTQIRDVAKSQGAYAACLSGAGPTVLVFAPRNLANTLQTSLQTLEIDADVLLLDVEGSGAEVFREGHHHHHH”, “not failed”.

For the sequence “MSLRITRIRLYKTDLPYVDGSYGWGAGNAITVARASVVVIDTDAGLQGCGEFTPCGENYMIAHSEGVDAFARLAAPQLLGQDPRQVARMERLMDHLVQGHGYAKAPFDAAFWDILGQATGQPVWMLLGGKLCDGAPMYRVAPQRSEAETRAELARHRAAGYRQFQIKVGADWQSDIDRIRACLPLLEPGEKAMADANQGWRVDNAIRLARATRDLDYILEQPCRSYEECQQVRRVADQPMKLDECVTGLHMAQRIVADRGAEICCLKISNLGGLSKARRTRDFLIDNRMPVVAEDSWGGEIASAAVAHFAASTPEEFLINSTDLMNYNTRSTGLGGPTVHQGRLYASDTPGLGVTPDFNSLGAPVADWALPEGHHHHHH”, the protein production entry is “not failed”.
